Source: article PMC13334617
Several values for one entry are separate records, joined by “and”; a condition that tells them apart may be missing. Equal values may be shown once.

Legend:
[1] = biological target: ACM2 variant of AC fused to GFP (ACM2-GFP), encoded by plasmid pACM2-Gfp (Bordetella pertussis | not stated) (UniProt P0DKX7); experiment: two-hybrid
[2] = biological target: ACM1 variant of AC fused to GFP (ACM1-GFP), encoded by plasmid pACM1-Gfp (Bordetella pertussis | not stated) (UniProt P0DKX7); experiment: two-hybrid

B1: CaM fused to the V1K nanobody at its N-terminus, with a C-terminal AviTag (CaM-V1K), encoded by plasmid pK1Cam-V1K (VHH)
VHH: QVQLVESGGALVQPGGSLRLSCAASGFPVNRYSMRWYRQAPGKEREWVAGMSSAGDRSSYEDSVKGRFTISRDDARNTVYLQMNSLKPEDTAVYYCNVNVGFEYWGQGTQVTVSS
ß gal (Rel. Units) [1]: 74 Rel. Units

B2: CaM fused to the V9A nanobody at its N-terminus and a tetra-cysteine tag at its C-terminus (CaM-V9A) (VHH)
VHH: DVQLQESGGGSVQAGGSLRLSCAASGDTFSSYSMAWFRQAPGKECELVSNILRDGTTTYAGSVKGRFTISRDDAKNTVYLQMVNLKSEDTARYYCAADSGTQLGYVGAVGLSCLDYVMDYWGKGTQVTVSS
cAMP [2]: > 50 nmol/mg
ß gal (Rel. Units) [2]: 26 Rel. Units
cAMP [1]: > 60 nmol/mg
ß gal (Rel. Units) [1]: 78 Rel. Units

B3: CaM fused to the V9A nanobody at its N-terminus, with a C-terminal AviTag (CaM-V9A), encoded by plas (VHH)
VHH: DVQLQESGGGSVQAGGSLRLSCAASGDTFSSYSMAWFRQAPGKECELVSNILRDGTTTYAGSVKGRFTISRDDAKNTVYLQMVNLKSEDTARYYCAADSGTQLGYVGAVGLSCLDYVMDYWGKGTQVTVSS
ß gal (Rel. Units) [2]: 4 Rel. Units
ß gal (Rel. Units) [1]: 57 Rel. Units and 23 Rel. Units
